Source: the supplement of paper PMC9732359
± gives the uncertainty stated by the source.

Assay: protein stability index of a GFP-peptide fusion (yeast GPS) (PSI 1-4); higher = more stable; sorted into four equal gates, so the index is relative within each strain
Procedure, shortened: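 Yeast carrying a pooled library were grown to mid-log phase in leucine-free medium. Each library plasmid expresses Cherry and has a tiled 17-residue yeast protein peptide fused downstream of GFP. Cells were sorted into four equal gates by GFP/Cherry ratio, and plasmids from each gate were PCR-amplified, Illumina-sequenced and assigned to strains by barcode. Summing, across gates, the read frequency times the gate number gave each peptide's protein stability index.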

Sequence | protein stability index (doa10∆) | protein stability index (pdr5∆) | protein stability index (san1∆) | protein stability index (ubr1∆)
ISYTSHIEGVVILKKNP [RPN1] | 2.57 ± 0.059 | 3.14 ± 0.078 | 2.87 ± 0.077 | 2.52 ± 0.046
DEGKEIPATIFDKVIYH [TAF14] | 3.13 ± 0.077 | 3.14 ± 0.059 | 3.15 ± 0.041 | 3.02 ± 0.056
IVGPDLAVLALVIVKKG [RPS6A] | 1.26 ± 0.035 | 1.34 ± 0.048 | 1.19 ± 0.093 | 1.36 ± 0.043
TALALKYLIKYNVFRQH [CSI1] | 1.63 ± 0.06 | 1.8 ± 0.049 | 1.7 ± 0.11 | 1.86 ± 0.053
NYSSESYRNAFTNVLTK [YJL039C/NUP192] | 2.56 ± 0.047 | 2.38 ± 0.067 | 2.31 ± 0.067 | 2.48 ± 0.038
LQIKRDVLDDLYRKLQR [CSE2] | 2.94 ± 0.072 | 3.11 ± 0.069 | 3.01 ± 0.085 | 3.35 ± 0.055
IGQFLEPIDQNTGIVSS [RPT3] | 2.48 ± 0.2 | 2.82 ± 0.11 | 2.14 ± 0.17 | 2.85 ± 0.066
ASRNVWSFYNGNVLIND [SNU114] | 2.87 ± 0.12 | 3.1 ± 0.082 | 3.5 ± 0.053 | 2.99 ± 0.063
TLKLQDTRITPSKVSKI [PRE6] | 2.53 ± 0.05 | 2.85 ± 0.052 | 2.34 ± 0.1 | 2.01 ± 0.031
PAHTVIIKGTDVYSPEK [BRR2] | 3.02 ± 0.055 | 3.19 ± 0.077 | 2.54 ± 0.072 | 2.68 ± 0.055
SGTDGSTIGILLLTIQL [SRP72] | 3.09 ± 0.064 | 2.91 ± 0.064 | 3.35 ± 0.054 | 3.15 ± 0.057
LNIRIQTYGETTAVDAL [RPC19] | 2.02 ± 0.12 | 1.09 ± 0.11 | 1.19 ± 0.28 | 1.15 ± 0.077
REIDALKKQLHVSHEAM [YIL149C/MLP2] | 2.88 ± 0.05 | 2.97 ± 0.047 | 2.91 ± 0.048 | 2.82 ± 0.049
ILRNGIDYLQRNDKTLE [POP1] | 3.19 ± 0.058 | 3.01 ± 0.056 | 2.95 ± 0.054 | 2.88 ± 0.051
DFIQNVGRLWDQTFPIN [ECM29] | 3.13 ± 0.062 | 3.35 ± 0.057 | 3.31 ± 0.043 | 3.31 ± 0.045
FRTVKEMVKDRGYFITQ [RPB5] | 2.52 ± 0.069 | 2.08 ± 0.071 | 1.72 ± 0.065 | 2.08 ± 0.041
VWYGLSDGEDGHIPWHI [SSN2] | 3.05 ± 0.08 | 3.25 ± 0.091 | 3.07 ± 0.053 | 3.1 ± 0.062
VQASVTSSTHERKSKTY [RET1] | 2.6 ± 0.066 | 2.78 ± 0.079 | 2.55 ± 0.056 | 2.97 ± 0.061
TRSAKKMVIAELLPHYP [YJR042W/NUP85] | 2.83 ± 0.089 | 2.81 ± 0.087 | 2.89 ± 0.052 | 3 ± 0.074
NGGLIHVVTREKGPQVC [RPO21] | 2.93 ± 0.14 | 3.09 ± 0.11 | 2.37 ± 0.13 | 2.96 ± 0.12
EEEEDTTTTANINEVKK [NUT1] | 3.24 ± 0.098 | 3.39 ± 0.11 | 3.09 ± 0.084 | 3.33 ± 0.15
LDKVINKELPINHTILG [RPN8] | 2.19 ± 0.077 | 2.27 ± 0.08 | 1.67 ± 0.13 | 2.4 ± 0.055
SRPGQSGRCDGYILEGE [RPS8A] | 3.38 ± 0.19 | 3.49 ± 0.17 | 3.3 ± 0.17 | 3.38 ± 0.049
TLDYAERHGYIRGIVKQ [RPL2A] | 1.71 ± 0.06 | 1.71 ± 0.083 | 1.71 ± 0.079 | 1.8 ± 0.051
PADSTYGAYNTQIANAG [PRE4] | 1.8 ± 0.097 | 2.03 ± 0.067 | 2.08 ± 0.15 | 1.69 ± 0.049
EFQIEDAIWSLVFQLAK [SRB8] | 3.63 ± 0.18 | 3.36 ± 0.23 |  | 
EYADNDEDKFKKLKPIV [PRP28] | 2.82 ± 0.072 | 2.65 ± 0.092 | 3.09 ± 0.09 | 2.64 ± 0.041

Sequence | protein stability index (doa10∆) | protein stability index (pdr5∆) | protein stability index (san1∆) | protein stability index (ubr1∆)
DESNDIDMIADENGTNS [RPC37] | 2.44 ± 0.1 | 2.43 ± 0.07 | 2.88 ± 0.11 | 3.12 ± 0.1
YSYTTIVLSDQTQEFFL [YJL039C/NUP192] | 2.79 ± 0.077 | 2.92 ± 0.068 | 2.93 ± 0.081 | 2.82 ± 0.062
QPQPQPQQQQQHLQFNG [YDL088C/ASM4] | 2.6 ± 0.036 | 2.78 ± 0.038 | 2.5 ± 0.051 | 2.919 ± 0.024
IALILAIQMVDPASFYL [SMC3] | 1.16 ± 0.05 | 1.25 ± 0.055 | 2.1 ± 0.12 | 1.98 ± 0.063
TFGIRRNEKIAVHVTVR [RPL11A] | 2.17 ± 0.082 | 1.68 ± 0.076 | 2.12 ± 0.081 | 2.21 ± 0.072
ADGQTLFAGYTDNVIRV [ASC1] | 1.85 ± 0.055 | 2.16 ± 0.052 | 2.22 ± 0.063 | 2.35 ± 0.057
AAKGSSTSYAIKKKDEL [RPS5] | 3.4 ± 0.18 | 1.82 ± 0.085 | 3.35 ± 0.087 | 3.28 ± 0.13
KLIAAAEDGSRSTKDMI [SNF6] | 3.54 ± 0.15 | 3.69 ± 0.23 | 3.44 ± 0.14 | 3.54 ± 0.087
TVTDDARIFEFPKTTVA [RPL18A] | 2.68 ± 0.056 | 2.7 ± 0.048 | 2.7 ± 0.061 | 2.42 ± 0.057
KKKRKKKNKSAIDGIFG [RMP1] | 2.47 ± 0.045 | 2.83 ± 0.045 | 2.81 ± 0.042 | 3.03 ± 0.038
EILTNQQRGITYLNEVL [YGR119C/NUP57] | 2.7 ± 0.068 | 3.09 ± 0.079 | 3.12 ± 0.061 | 2.71 ± 0.066
QVRRDIPSAAFNFFEPI [YMR129W/POM152] | 1.9 ± 0.036 | 2.23 ± 0.041 | 1.96 ± 0.049 | 2.15 ± 0.031
QIELSCNERVPLSVATE [SRP72] | 2.11 ± 0.04 | 2.21 ± 0.053 | 2.1 ± 0.087 | 2.12 ± 0.04
GHRADVGGQFSKVQFDA [REC8] | 3.25 ± 0.085 | 3.45 ± 0.11 | 3.28 ± 0.059 | 3.23 ± 0.056
DQPQSSEAKRTKFSNPA [BRR2] | 3.1 ± 0.093 | 2.65 ± 0.068 | 3.24 ± 0.086 | 3.13 ± 0.084
HKHREARGLTATGKKSR [RPL15A] | 3.58 ± 0.2 | 3.37 ± 0.15 | 3.31 ± 0.069 | 3.15 ± 0.068
VCLMQISTRERDYLVDT [RRP6] | 3.3 ± 0.22 | 3.4 ± 0.16 | 3.49 ± 0.088 | 2.99 ± 0.089
IDDNYIVVVIEIITSLS [SRB8] | 2.6 ± 0.11 | 2.87 ± 0.081 | 2.16 ± 0.082 | 2.22 ± 0.086
PDVKSLVQLSTMETKTL [SIR4] | 2.92 ± 0.071 | 2.83 ± 0.073 | 2.81 ± 0.052 | 2.98 ± 0.063
SIHAHGSTDVGYYLSLG [PUP1] | 2.62 ± 0.069 | 2.79 ± 0.069 | 2.91 ± 0.065 | 2.24 ± 0.053
RIENPEKYAAAAPAATS [RPP0] | 2.95 ± 0.085 | 3.22 ± 0.11 | 2.71 ± 0.094 | 3.16 ± 0.057
FNQRDGEHEKSNILLNS [MED1] | 2.4 ± 0.087 | 1.96 ± 0.11 | 2.99 ± 0.17 | 3.21 ± 0.11
EPTYRLVRYGLAEKVEK [RPS24A] | 3.48 ± 0.19 | 3.42 ± 0.2 |  | 3.12 ± 0.19
GRLDRKVEIPLPNEAGR [RPT4] | 3.16 ± 0.13 | 3.27 ± 0.1 | 3.11 ± 0.065 | 3.09 ± 0.1
ERFTKSKTLSLIQSYSL [FAS1] | 2.29 ± 0.063 | 2.06 ± 0.043 | 1.93 ± 0.11 | 2.06 ± 0.039
HDSILHSRILPKKALKV [RRP43] | 2.08 ± 0.038 | 2.04 ± 0.041 | 1.68 ± 0.079 | 1.75 ± 0.034
